US20140220589

Molecular target: T1, H11 peptide FLVMFLSG (SEQ. ID. NO.: 1) (not fully specified)
T1 chain: FLVMFLSG

B1: streptococcal pyogenix exotoxin B (SpeB) (protein)
chain: QPVVKSLLDSKGIHYNQGNPYNLLTPVIEKVKPGEQSFVGQHAATGCVATATAQIMKYHNYPNKGLKDYTYTLSSNNPYFNHPKNLFAAISTRQYNWNNILPTYSGRESNVQKMAISELMADVGISVDMDYGPSSGSAGSSRVQRALKENFGYNQSVHQINRGDFSKQDWEAQIDKELSQNQPVYYQGVGKVGGHAFVIDGADGRNFYHVNWGWGGVSDGFFRLDALNPSALGTGGGAGGFNGYQSAVVGIKP
proteolytic activity in a microplate assay (rate of color development, mOD/min); lower limit of detection: The lower limit of detection was 100 pg of purified SpeB
